# T1: human high affinity trimeric IL-2 receptor (CD25/CD122/CD132) (human, UniProt P01589 22-272; P14784 27-551; P31785 23-369)
# T1 sequence 1: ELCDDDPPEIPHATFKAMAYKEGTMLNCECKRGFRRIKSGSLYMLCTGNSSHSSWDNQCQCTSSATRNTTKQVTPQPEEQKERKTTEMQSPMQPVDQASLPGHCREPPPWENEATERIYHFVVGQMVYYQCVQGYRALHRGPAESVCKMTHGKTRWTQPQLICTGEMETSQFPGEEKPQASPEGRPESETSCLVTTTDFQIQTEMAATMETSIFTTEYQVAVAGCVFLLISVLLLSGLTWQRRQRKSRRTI
# T1 sequence 2: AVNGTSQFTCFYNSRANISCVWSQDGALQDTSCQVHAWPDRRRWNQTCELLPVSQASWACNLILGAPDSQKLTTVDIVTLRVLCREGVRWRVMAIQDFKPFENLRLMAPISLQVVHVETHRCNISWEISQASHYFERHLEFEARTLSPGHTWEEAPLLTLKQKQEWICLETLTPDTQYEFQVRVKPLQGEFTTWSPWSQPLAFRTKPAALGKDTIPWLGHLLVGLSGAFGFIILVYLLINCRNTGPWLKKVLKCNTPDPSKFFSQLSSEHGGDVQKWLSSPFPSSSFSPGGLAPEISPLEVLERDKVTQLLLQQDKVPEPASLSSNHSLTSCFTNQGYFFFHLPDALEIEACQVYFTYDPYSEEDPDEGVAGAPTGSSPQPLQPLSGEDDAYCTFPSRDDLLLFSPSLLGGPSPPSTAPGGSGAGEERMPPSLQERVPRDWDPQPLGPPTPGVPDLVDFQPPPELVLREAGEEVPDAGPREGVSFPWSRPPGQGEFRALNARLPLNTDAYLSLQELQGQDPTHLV
# T1 sequence 3: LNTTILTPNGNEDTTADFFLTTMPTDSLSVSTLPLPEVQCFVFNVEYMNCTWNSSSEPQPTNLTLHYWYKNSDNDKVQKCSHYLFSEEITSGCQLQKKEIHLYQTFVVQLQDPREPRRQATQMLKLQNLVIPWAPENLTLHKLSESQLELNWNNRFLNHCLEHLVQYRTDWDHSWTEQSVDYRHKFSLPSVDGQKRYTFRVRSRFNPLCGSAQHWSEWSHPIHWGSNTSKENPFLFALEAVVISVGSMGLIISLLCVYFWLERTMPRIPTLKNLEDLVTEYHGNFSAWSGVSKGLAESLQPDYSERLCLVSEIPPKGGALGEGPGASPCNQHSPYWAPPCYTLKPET
# Target: T1, human high affinity trimeric IL-2 …
# Assay: cell-based or functional assay
"pSTAT5 ratio YT CD25/YT, dilution factor 2, lower table","pSTAT5 ratio YT CD25/YT, dilution factor 4, lower table","pSTAT5 ratio YT CD25/YT, dilution factor 8, lower table","pSTAT5 ratio YT CD25/YT, dilution factor 16, lower table","pSTAT5 ratio YT CD25/YT, dilution factor 32, lower table","pSTAT5 ratio YT CD25/YT, dilution factor 64, lower table","pSTAT5 ratio YT CD25/YT, dilution factor 128, lower table",Binder
0.7,0.8,1.3,2.5,4.3,7.4,10.6,RFH (ligand) cytokine: APTSSSTKKTQLQLEHLRLDLFMILNGINNYKNPKLTRMLTFKFYMPKKATELKHLQCLEEELKPLEEVLNLAQSKNFHLRPRDLISNINVIVLELKGSETTFMCEYADETATIVEFLNRWITFCHSIISTLT
2,2,2.7,3.9,6.3,10.6,16,RHH (ligand) cytokine: APTSSSTKKTQLQLEHLRLDLHMILNGINNYKNPKLTRMLTFKFYMPKKATELKHLQCLEEELKPLEEVLNLAQSKNFHLRPRDLISNINVIVLELKGSETTFMCEYADETATIVEFLNRWITFCHSIISTLT
0.9,2.2,3.4,5.5,8.7,11.8,10.5,RYH (ligand) cytokine: APTSSSTKKTQLQLEHLRLDLYMILNGINNYKNPKLTRMLTFKFYMPKKATELKHLQCLEEELKPLEEVLNLAQSKNFHLRPRDLISNINVIVLELKGSETTFMCEYADETATIVEFLNRWITFCHSIISTLT
2.3,1.9,2.6,3.6,5.4,9.1,14.3,RTH (ligand) cytokine: APTSSSTKKTQLQLEHLRLDLTMILNGINNYKNPKLTRMLTFKFYMPKKATELKHLQCLEEELKPLEEVLNLAQSKNFHLRPRDLISNINVIVLELKGSETTFMCEYADETATIVEFLNRWITFCHSIISTLT

# More lines, now with the values behind:
Binder,"pSTAT5 ratio YT CD25/YT, dilution factor 2, lower table","pSTAT5 ratio YT CD25/YT, dilution factor 4, lower table","pSTAT5 ratio YT CD25/YT, dilution factor 8, lower table","pSTAT5 ratio YT CD25/YT, dilution factor 16, lower table","pSTAT5 ratio YT CD25/YT, dilution factor 32, lower table","pSTAT5 ratio YT CD25/YT, dilution factor 64, lower table","pSTAT5 ratio YT CD25/YT, dilution factor 128, lower table"
RIH (ligand) cytokine: APTSSSTKKTQLQLEHLRLDLIMILNGINNYKNPKLTRMLTFKFYMPKKATELKHLQCLEEELKPLEEVLNLAQSKNFHLRPRDLISNINVIVLELKGSETTFMCEYADETATIVEFLNRWITFCHSIISTLT,1.1,1.5,2.4,3.8,6,8.4,11.5
RVH (ligand) cytokine: APTSSSTKKTQLQLEHLRLDLVMILNGINNYKNPKLTRMLTFKFYMPKKATELKHLQCLEEELKPLEEVLNLAQSKNFHLRPRDLISNINVIVLELKGSETTFMCEYADETATIVEFLNRWITFCHSIISTLT,0.9,0.9,1.4,1.9,3.3,5.3,8
RSH (ligand) cytokine: APTSSSTKKTQLQLEHLRLDLSMILNGINNYKNPKLTRMLTFKFYMPKKATELKHLQCLEEELKPLEEVLNLAQSKNFHLRPRDLISNINVIVLELKGSETTFMCEYADETATIVEFLNRWITFCHSIISTLT,1,0.9,1.1,1.8,2.8,5,6.8
RDH (ligand) cytokine: APTSSSTKKTQLQLEHLRLDLDMILNGINNYKNPKLTRMLTFKFYMPKKATELKHLQCLEEELKPLEEVLNLAQSKNFHLRPRDLISNINVIVLELKGSETTFMCEYADETATIVEFLNRWITFCHSIISTLT,1.7,1.8,2.1,2.2,2.9,4.4,7
RWH (ligand) cytokine: APTSSSTKKTQLQLEHLRLDLWMILNGINNYKNPKLTRMLTFKFYMPKKATELKHLQCLEEELKPLEEVLNLAQSKNFHLRPRDLISNINVIVLELKGSETTFMCEYADETATIVEFLNRWITFCHSIISTLT,0.8,0.8,1.2,2,3,5,9.1
RNH (ligand) cytokine: APTSSSTKKTQLQLEHLRLDLNMILNGINNYKNPKLTRMLTFKFYMPKKATELKHLQCLEEELKPLEEVLNLAQSKNFHLRPRDLISNINVIVLELKGSETTFMCEYADETATIVEFLNRWITFCHSIISTLT,2.1,2,2.6,3.6,5.2,7.7,13
RKH (ligand) cytokine: APTSSSTKKTQLQLEHLRLDLKMILNGINNYKNPKLTRMLTFKFYMPKKATELKHLQCLEEELKPLEEVLNLAQSKNFHLRPRDLISNINVIVLELKGSETTFMCEYADETATIVEFLNRWITFCHSIISTLT,1,1.1,1.8,3,5.5,8.1,11
RRH (ligand) cytokine: APTSSSTKKTQLQLEHLRLDLRMILNGINNYKNPKLTRMLTFKFYMPKKATELKHLQCLEEELKPLEEVLNLAQSKNFHLRPRDLISNINVIVLELKGSETTFMCEYADETATIVEFLNRWITFCHSIISTLT,2.3,2.8,3.8,6.5,10.3,14.6,19

# From US20210275641A1 (SYNTHEKINE, published 2021)
